How the values were obtained:
[1] = molecular target: human FcγR3a 176Val allotype receptor (human, UniProt P08637 17-254); assay: cell-based or functional assay
[2] = molecular target: SARS-COV-2 RBD extracellular domain expressed with a C-terminal myc-myc-hexahistidine tag (SARS-CoV-2); assay: SPR (Biacore), mAb captured by anti-human Fc, RBD-mmH in solution, 25 C
SARS-COV-2 RBD-MMH [3] = molecular target: SARS-COV-2 RBD-MMH (SARS-CoV-2); assay: SPR 37C, run with dissociation at pH 5.0
SARS-COV-2 RBD-MMH [4] = molecular target: SARS-COV-2 RBD-MMH (SARS-CoV-2); assay: SPR 37C, run with dissociation at pH 7.4

Binder | EC50 (M), Jurkat/CD20/spike [1] [M] | Fold induction, Jurkat CD20 [1] [fold] | Fold induction, Jurkat/CD20/spike [1] [fold] | Kd [2] [nM] | koff [2] [s⁻¹] | kon [2] [M⁻¹ s⁻¹] | t½ [2] [min] | further results
mAb14233 (antibody) heavy: not shown light: SYELTQPPSVSVSPGQTARITCSGDVLAKLYAYWYQHKPGQAPVLVIYKDSERPSGIPERFSGSSSGTTVTLTISGVQAEDEADYYCQSADSSGSLWVFGGGTKLTVLGQPKAAPSVTLFPPSSEELQANKATLVCLISDFYPGAVTVAWKADSSPVKAGVETTTPSKQSNNKYAASSYLSLTPEQWKSHRSYSCQVTHEGSTVEKTVAPTECS | 2.8e-10 | 1.1 | 11 |  |  |  |  | 
mAb14259 (antibody) heavy: not shown light: DIVMTQSPLSLPVTPGEPASISCRSSQTLLHSNGYNYLDWYLQKPGQSPQLLIHLGSNRASGVPDRFSGSGSVTDFTLKISRVEAEDVGVYYCMQALQTPYTFGQGTKLEIKRTVAAPSVFIFPPSDEQLKSGTASVVCLLNNFYPREAKVQWKVDNALQSGNSQESVTEQDSKDSTYSLSSTLTLSKADYEKHKVYACEVTHQGLSSPVTKSFNRGEC | 3.94e-10 | 1 | 8.7 |  |  |  |  | 
mAb14291 (antibody) heavy: not shown light: DIVMTQSPLSLPVTPGEPASISCRSSQSLLHSNGYNYINWYLQKPGQSPQLLMYLGSNRASGVPDRFSGSGSGTDSTLKISRVEAEDAGVYYCMQTRQTPYTFGQGTKLEIKRTVAAPSVFIFPPSDEQLKSGTASVVCLLNNFYPREAKVQWKVDNALQSGNSQESVTEQDSKDSTYSLSSTLTLSKADYEKHKVYACEVTHQGLSSPVTKSFNRGEC | 3.02e-10 | 1.1 | 9.7 |  |  |  |  | 
mAb14313 (antibody, V domains shown) VH: EVQLVESGGGLVQPGRSLRLSCVASGFTFDDSAMHWVRQPPGKGLEWVSGISWNSGIIGYAESVKGRFIISRDNAKNSLFLHMRGLRPEDTAVYYCARDRLELSYYYYGMDVWGQGTTVTVSS VL: not shown |  |  |  | 1.53 | 0.00217 | 1.42e+06 | 5.3 | 
mAb14295 (antibody) heavy: not shown light: DIQMTQSPSSLSASVGDRVTITCRASQSINTYLNWYQQKPGKAPNLLIDGASSLQSGVPSRFSGSGSGTDFILTISSLRPEDFATYYCQQSYSIPLTFGGGTRVEIKRTVAAPSVFIFPPSDEQLKSGTASVVCLLNNFYPREAKVQWKVDNALQSGNSQESVTEQDSKDSTYSLSSTLTLSKADYEKHKVYACEVTHQGLSSPVTKSFNRGEC | 1.93e-10 | 1 | 11.5 |  |  |  |  | 
mAb14257 (antibody, V domains shown) VH: EVQLVESGGGLVQPGGSLRLSCAASGFTVSRSYMNWVRQAPGKGLEWVSVVFTGGTTKHTDSVKGRFTISRDNSMNTLYLQMNSLRPEDTAVYYCARVAIVETTGAFDIWGQGTMVTVSS VL: QSVLTQPPSVSGAPGQRVTISCTGTSSNIGADFDVHWYQQFPGTAPKLLIYGHTNRPSGIPDRFSGSKSGTSASLAITGLQAEDEADYYCQSYDSSLSGSVVFGGGTKLTVLG |  |  |  | 2.8 | 0.00952 | 3.4e+06 | 1.2 | 
mAb14232 (antibody) heavy: not shown light: QSALTQPPSASGSPGQSVTISCTATSSDVGNYNYVSWYQQHPGKAPKLMIYEVTKRPSGVPDRFSGSKSGNTASLTVSGLQAEDEADYYCSSYAGSWGVFGGGTKLTVLGQPKAAPSVTLFPPSSEELQANKATLVCLISDFYPGAVTVAWKADSSPVKAGVETTTPSKQSNNKYAASSYLSLTPEQWKSHRSYSCQVTHEGSTVEKTVAPTECS | 1.31e-10 | 1.2 | 10.8 |  |  |  |  | RBD.mmh Bound at pH 7.4 (RU) (SARS-COV-2 RBD-MMH [3]): 10.1 RU; koff (SARS-COV-2 RBD-MMH [3]): 0.000656 s⁻¹; t½ (SARS-COV-2 RBD-MMH [3]): 17.6 min; RBD.mmh Bound at pH 7.4 (RU) (SARS-COV-2 RBD-MMH [4]): 8.2 RU; koff (SARS-COV-2 RBD-MMH [4]): 0.0311 s⁻¹
mAb14255 (antibody, V domains shown) VH: QVQLQESGPGLVKPSETLSLTCTVSGGSISGYYWSWIRQPPGKGLDWIGYIYYRGNTNYNPSLKSRVTISVDTSNNQFSLKLSSVTAADTAVYYCARYGEGYGDASGYHFDYWGQGTLVTVSS VL: QSALTQPASVSGSPGQSITISCTGTSSDVGSYNLVSWYQQHPGKAPKLMIYEDSKRPSGVANPFSGSKSGNTASLTISGLQAEDEADYYCSSYAGSSTWVFGGGTKLTVLG |  |  |  | 2.84 | 0.00499 | 1.75e+06 | 2.3 | 
mAb14315 (antibody, V domains shown) VH: QVQLVQSGAEVKKPGSSVKVSCKASGDTFSTYAINWVRQAPGQGLEWMGRFIHIFGTANYAQKFQGRVTITADESTSTAYMELRSLRSEDTAVYYCARDGVDYGDYRPDYWGQGTLVTVSS VL: EIVLTQSPGTLSLSPGERATLSCRASQSVSSNYLAWYQQKPGQAPRLLIYGASSRATGIPERFSGSGSGTDFTLTISRLEPEDFAVYYCQQYGSSLYTFGQGTKLEIKR |  |  |  | 2.49 | 0.00102 | 407000 | 11.4 | 
mAb14288 (antibody) heavy: not shown light: QSVLTQPPSVSAAPGQKVTISCSGSSSNIGNNYVSWYQQLPGTAPKLLIYENNKRPSGIPDRFSGSKSGTSATLGITGLQTGDEADYYCGTWDSSLSAGQGVFGGGTKLTVLGQPKAAPSVTLFPPSSEELQANKATLVCLISDFYPGAVTVAWKADSSPVKAGVETTTPSKQSNNKYAASSYLSLTPEQWKSHRSYSCQVTHEGSTVEKTVAPTECS | 5.1e-10 | 1 | 6.7 |  |  |  |  | 
mAb14290 (antibody) heavy: not shown light: EIVLTQSPGTLSLSPGERATLSCRASQSVNNNYLAWYQQKPGQTPRLLIYGASSRATGIPDRFSGSGSGTDFTLTITRLEPEDFAVYHCQQYGRSPTTFGQGTRLEIKRTVAAPSVFIFPPSDEQLKSGTASVVCLLNNFYPREAKVQWKVDNALQSGNSQESVTEQDSKDSTYSLSSTLTLSKADYEKHKVYACEVTHQGLSSPVTKSFNRGEC | 3.42e-09 | 1 | 9.5 |  |  |  |  | 
mAb13458 (antibody, V domains shown) VH: EVQLVESGGGLVQPGRSLRLSCAASGFTFDDYAMHWVRQAPGKGLEWVSGISWNSGSIGYADSVKGRFTISRDNAKNSLYLQMNSLRAEDTALYYCAKDIGITTPYWGQGTLVTVSS VL: AIQMTQSPSSLSASVGDRVTITCRASQDIRNDLGWYQQKPGKAPKLLIYSASSLQTGVPSRFSGSGSGTDFTLTISSLHPEDFATYYCLQDYWYTWTFGQGTKVEIKR |  |  |  | 1.53 | 0.00139 | 909000 | 8.3 | 
mAb13459 (antibody, V domains shown) VH: EVQLVESGGGLVQPGRSLRLSCAASGFTFDDYAMHWVRQAPGKGLEWVSGISWNSGSIGYADSVKGRFTISRDNAKNSLYLQMNSLRAEDTALYYCAKDIGITTPYWGQGTLVTVSS VL: AIQMTQSPSSLSASVGDRVTITCRASQDIRNDLGWYQQKPGKAPKLLIYSASSLQTGVPSRFSGSGSGTDFTLTISSLHPEDFATYYCLQDYNYVWTFGQGTKVEIKR |  |  |  | 2.51 | 0.00174 | 693000 | 6.6 | 
mAb14285 (antibody) heavy: not shown light: QSALTQPASVSGSPGQSITISCTGTSSDVESYNLVSWYQQHPGKAPKLMIYEGSKRPSGVSNRFSGSKSGNTASLTISGLQAEDEADYYCSSYAGSSTWVFGGGTKLTVLGQPKAAPSVTLFPPSSEELQANKATLVCLISDFYPGAVTVAWKADSSPVKAGVETTTPSKQSNNKYAASSYLSLTPEQWKSHRSYSCQVTHEGSTVEKTVAPTECS | 2.43e-10 | 1.1 | 11 |  |  |  |  | RBD.mmh Bound at pH 7.4 (RU) (SARS-COV-2 RBD-MMH [3]): 51.5 RU; koff (SARS-COV-2 RBD-MMH [3]): 0.0025 s⁻¹; t½ (SARS-COV-2 RBD-MMH [3]): 4.6 min; RBD.mmh Bound at pH 7.4 (RU) (SARS-COV-2 RBD-MMH [4]): 64.2 RU; koff (SARS-COV-2 RBD-MMH [4]): 0.0258 s⁻¹
mAb14287 (antibody) heavy: not shown light: QSALTQPASVSGSPGQSITISCTGTSSDVGSYNLVSWYQQHPGKAPKLMIYEVSKRPSGVSNRFSGSKSGNTASLTISGLQAEDEADYYCSSYAGSRREVFGGGTKLTVLGQPKAAPSVTLFPPSSEELQANKATLVCLISDFYPGAVTVAWKADSSPVKAGVETTTPSKQSNNKYAASSYLSLTPEQWKSHRSYSCQVTHEGSTVEKTVAPTECS | 1.23e-09 | 1 | 6.2 |  |  |  |  | 
mAb14247 (antibody, V domains shown) VH: QITLKESGPTLVKPTQTLTLTCTFSGFSLSTSAVGVGWIRQPPGKALEWLALIYWDDDKRYSPSLKSRLTITKDTSKNQLVLTMTNVDPVDTATYYCAHHTIQLIFDYWGQGTLVTVSS VL: QSALTQPASVSGSPGQSITISCTATSSDVGNYNYVSWYQQHPGKAPKLMIYEVSNRPSGVSNRFSGSKSGNTASLTISGLQAEDEADYYCSSYTSSSTPLVFGGGTKLTVLG |  |  |  | 1.94 | 0.00163 | 838000 | 7.1 | 
mAb14314 (antibody) heavy: not shown light: QSVLTQPPSVSAAPGQKVTISCSGSISNIGNNYVSWYQQLPGTAPKLLIYDNDKRPSGIPDRFSGSRSGTSATLGITGLQTGDEADYYCGTWDSSLTAYVFGTGTKVTVLGQPKAAPSVTLFPPSSEELQANKATLVCLISDFYPGAVTVAWKADSSPVKAGVETTTPSKQSNNKYAASSYLSLTPEQWKSHRSYSCQVTHEGSTVEKTVAPTECS |  | 1.1 | 3.9 |  |  |  |  | 
